Reference: patent publication US20230009582A1 (MEMO THERAPEUTICS, published 2023)

B1: monoclonal antibody 224B1 (rabbit) (antibody, V domains shown)
VH: QSVEESGGRLVTPETPLTLTCTASGFSLSSYYMSWVRQAPGKGLEWIGYIWTDGSAHYATWTKGRFTISKTSSTTVDLKITSPTTEDTATYFCVRANSGSHTYIEKFNLWGPGTLVTVSS
VL: DVVMTQTPASVEATVGGSVTIKCQASPSINDELSWYQQKPGQRPTLLIYEASALESGVPSRFKGSGSGTEFTLTIGDLECADAATYYCQCTYGSRSDISYGNTFGGGTEVVVKG
B2: comparative monoclonal antibody mAbA (WO 2017/153433), mouse-human chimera (antibody, human IgG1, kappa, V domains shown)
VH: QVQLQQPGAELVKPGSPVKLSCKASYFTFTSYWMHWVRQRPGQGLEWIGEINPSNGHTNYNEKFESKATLTVDRSSSTAYMQLSSLTSEDSAVFYCANGVESYDFDDALDYWGQGTSVTVSS
VL: DIQMTQTTSSLSASLGDRVTISCRASQDINNYLNWYQQKPDGTIKLLIYYTSRLHSGVPSRFSGSGSGTDYSLTINNLEQEDIATYFCQQGNTLPFTFGGGTKLEIKR

Experiments:
[1] = biological target: Siglec-9 protein (construct not stated; antigen of Examples 3 and 4) (human, UniProt Q9Y336 18-348, limits assumed); test: SPR (Carterra LSA), antibody coupled to HC2000M chip, antigen at 20, 100 and 500 nM
Experimental: KD determination was performed by SPR by individually coating the antibodies to HC2000M chips via sulpho-NHS/EDC coupling chemistry. Chips were afterwards blocked with ethanolamine. Antigen was applied in one of the three different concentrations (20 nM, 100 nM and 500 nM) with a contact time of 240 s, followed by a dissociation phase of 120 s. After each antigen incubation, the bound antigen was removed from the antibodies with 10 mM glycine at pH 2.0. All kinetic parameters (kₒₙ, koff and KD) were determined using a kinetic fitting program (LSA Kinetics, Carterra).

[2] = biological target: T1, Siglec-9-Fc (in-house production); test: blocking assay: Calcein-AM labelled sialic acid-displaying A549 tumour cells binding to plate-captured Siglec-9-Fc, antibody titrated, n=3
T1 construct: The entry holds the Siglec-9 part and the Fc together; also called Siglec-9-Fc protein
Experimental: FIG. 4: Titration of monoclonal antibodies (68D4 and 224B1; comparative monoclonal antibodies mAbA and 5C6 & negative control 53C3) to determine blocking the binding of sialic acid-displaying A549 tumour cells to Siglec-9. Tumour cells were fluorescently-loaded with Calcein-AM in advance to the binding experiment and binding was determined by the released fluorescence upon cell lysis. Fluorescence released in the absence of antibody was set to 100% binding. Data was fitted by three-parameter analysis in GraphPad Prism (GraphPad Software); n=3.
To analyse if anti-Siglec-9 antibodies recognize the ligand-binding domain and block the binding of Siglec-9 to its ligands, sialic acids, we performed a cell-based assay where the binding of sialic-acid expressing A549 tumour cells to Siglec-9-Fc is evaluated in ELISA. ELISA-plates were coated with 3 μg/ml Protein-A (Thermo Fisher Scientific) overnight at 4° C. Plates were blocked with PBS, 1% BSA for 1 h, and incubated with 5 μg/ml Siglec-9-Fc for 1 h at RT. Anti-Siglec-9 antibodies at different concentrations (starting at 8 μg/ml or 53 nM); were mixed 1:1 with Calcein-AM (Thermo Fisher Scientific) labeled A549 tumour cells. The mixture was added to the ELISA plate and incubated for 1 h at 4° C. After washing of the plate, cells that were bound to the plate were lysed with PBS, 1% Triton-X 100 and released fluorescence was measured at an excitation of 485 nm and emission of 535 nm with a Synergy H1 (BioTek). Data were fitted by three-parameter analysis in GraphPad Prism (GraphPad Software).

[3] = biological target: T2, Siglec-15-Fc (R&D systems) (UniProt Q6ZMC9 20-263, limits assumed); test: ELISA, coated Siglec-15-Fc 1 µg/ml, single antibody concentration, Abs 450 nm, n=3
T2 construct: Bought reagent; not shown: Fc part of the bought fusion; not described
T2 sequence (looked up): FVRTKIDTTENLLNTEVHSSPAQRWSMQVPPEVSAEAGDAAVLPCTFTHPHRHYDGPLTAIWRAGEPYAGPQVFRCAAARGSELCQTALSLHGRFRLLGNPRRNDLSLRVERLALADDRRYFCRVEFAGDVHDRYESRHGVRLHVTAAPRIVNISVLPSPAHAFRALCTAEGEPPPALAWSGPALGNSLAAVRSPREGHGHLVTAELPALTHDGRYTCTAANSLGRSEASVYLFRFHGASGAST
Experimental: (§1) Specificity towards Siglec-5, Siglec-7, Siglec-8, Siglec-15 and Siglec-9 was assayed in enzyme-linked immunosorbent assay (ELISA) using 96 well half-area ELISA plates (Corning). Siglec-5-Fc (R&D systems), Siglec-7-Fc (in-house production, Siglec-7-Fc protein used had the following amino acid sequence:
(§2) (SEQ ID NO: 59)) […] […] […] […] […] […] […] […] […] […] […] […], Siglec-8-Fc (R&D systems), Siglec-15- Fc (R&D systems) and Siglec-9-Fc (in-house production, SEQ ID NO: 11) were coated at 1 μg/ml in 50 mM carbonate-bicarbonate buffer pH 9.6 for 15-20 hours at 4° C.
(§3) Antigens were washed away (Tecan Hydrospeed) and plates were blocked with 5% skimmed milk in phosphate-buffered saline (PBS). After washing the plates, antibodies were added at 5 μg/ml (33 nM) in 0.5% milk PBS in triplicates. Plates with antibodies were incubated for 1 hour at room temperature. Plates were washed and bound antibodies were detected by horseradish peroxidase (HRP)-labeled polyclonal anti-rabbit IgG antibody (Biolegend) or anti-human Fab fragment for mAbA (Sigma Aldrich). 3,3′,5,5′-Tetramethylbenzidine (TMB; Sigma Aldrich) development was stopped by addition of sulfuric acid and absorbance was detected at 450 nm (Tecan, CM […] MONO 200).

[4] = biological target: T3, Siglec-7-Fc (in-house production); test: ELISA, coated Siglec-7-Fc 1 µg/ml, single antibody concentration, anti-human Fab detection, Abs 450 nm, n=3
T3 construct: The entry holds the Siglec-7 part and the Fc together; also called Siglec-7-Fc protein
Experimental: as §1, §2, §3

[5] = biological target: T2, Siglec-15-Fc (R&D systems); test: ELISA, coated Siglec-15-Fc 1 µg/ml, single antibody concentration, anti-human Fab detection, Abs 450 nm, n=3
Experimental: as §1, §2, §3

[6] = biological target: T4, Siglec-8-Fc (R&D systems) (UniProt Q9NYZ4 17-363, limits assumed); test: ELISA, coated Siglec-8-Fc 1 µg/ml, single antibody concentration, anti-human Fab detection, Abs 450 nm, n=3
T4 construct: Bought reagent; not shown: Fc part of the bought fusion; not described
Experimental: as §1, §2, §3

[7] = biological target: extra-cellular domain of Siglec-9 fused to a C-terminal his-tag (Homo sapiens (Human), UniProt Q9Y336 18-348); test: ELISA, coated his-tagged Siglec-9 extracellular domain, anti-human Fc gamma detection, Abs 450 nm
Excerpt: (SEQ ID NO: 44) […] […] […] […] […] […] […]. For detection of bound IgG either polyclonal anti- rabbit IgG antibody (68D4; Biolegend, #406401), or anti-human Fey fragment (humanized 68D4 and mAbA; Jackson Immuno Research laboratories, #109-035-098) were used.

Siglec-9 protein (construct not stated; antigen of Examples 3 and 4), sequence (Q9Y336 18-348 limits assumed): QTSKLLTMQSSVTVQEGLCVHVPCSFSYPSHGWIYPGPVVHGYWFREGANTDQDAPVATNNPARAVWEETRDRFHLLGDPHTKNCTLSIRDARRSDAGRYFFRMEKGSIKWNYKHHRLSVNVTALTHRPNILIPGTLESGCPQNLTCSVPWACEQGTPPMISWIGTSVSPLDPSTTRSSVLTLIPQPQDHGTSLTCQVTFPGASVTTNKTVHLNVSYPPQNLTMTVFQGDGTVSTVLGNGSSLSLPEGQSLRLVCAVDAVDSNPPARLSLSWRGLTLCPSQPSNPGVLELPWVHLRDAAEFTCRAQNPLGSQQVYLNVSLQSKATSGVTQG
T1 sequence (chain, as listed by the source limits assumed): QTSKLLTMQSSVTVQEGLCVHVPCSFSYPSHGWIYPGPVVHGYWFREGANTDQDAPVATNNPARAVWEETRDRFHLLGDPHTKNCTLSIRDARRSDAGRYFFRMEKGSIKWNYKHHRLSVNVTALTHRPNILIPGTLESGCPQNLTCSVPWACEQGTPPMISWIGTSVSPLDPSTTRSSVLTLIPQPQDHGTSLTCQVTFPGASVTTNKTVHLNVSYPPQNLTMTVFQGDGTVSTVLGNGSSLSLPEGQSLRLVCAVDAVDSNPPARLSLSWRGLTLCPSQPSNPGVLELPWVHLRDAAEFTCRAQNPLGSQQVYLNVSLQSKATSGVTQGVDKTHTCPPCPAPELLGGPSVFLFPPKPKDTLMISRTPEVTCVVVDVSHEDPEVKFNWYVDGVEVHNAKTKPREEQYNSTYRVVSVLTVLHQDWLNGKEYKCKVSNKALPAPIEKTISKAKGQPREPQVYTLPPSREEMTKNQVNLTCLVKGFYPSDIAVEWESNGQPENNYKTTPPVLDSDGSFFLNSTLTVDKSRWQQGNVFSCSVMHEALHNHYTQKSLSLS
extra-cellular domain of Siglec-9 fused to a C-terminal his-tag, sequence (Q9Y336 18-348 limits assumed): as the sequence (Q9Y336 18-348 limits assumed) above
T3 sequence (chain, as listed by the source limits assumed): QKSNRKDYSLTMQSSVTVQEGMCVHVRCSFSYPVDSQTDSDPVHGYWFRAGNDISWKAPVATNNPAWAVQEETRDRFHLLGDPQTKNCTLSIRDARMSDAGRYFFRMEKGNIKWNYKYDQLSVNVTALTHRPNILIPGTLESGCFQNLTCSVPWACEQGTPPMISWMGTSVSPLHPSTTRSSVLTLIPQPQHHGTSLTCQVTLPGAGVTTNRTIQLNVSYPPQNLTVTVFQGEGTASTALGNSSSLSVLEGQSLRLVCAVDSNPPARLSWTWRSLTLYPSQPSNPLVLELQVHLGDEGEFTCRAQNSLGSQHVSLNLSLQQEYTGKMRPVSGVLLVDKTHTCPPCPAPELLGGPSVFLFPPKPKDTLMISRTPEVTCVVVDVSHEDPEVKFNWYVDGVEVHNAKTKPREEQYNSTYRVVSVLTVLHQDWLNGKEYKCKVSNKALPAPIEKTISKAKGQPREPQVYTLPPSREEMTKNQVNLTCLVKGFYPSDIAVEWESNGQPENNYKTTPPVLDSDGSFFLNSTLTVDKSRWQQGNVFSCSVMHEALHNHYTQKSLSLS
T4 sequence (Q9NYZ4 17-363 limits assumed): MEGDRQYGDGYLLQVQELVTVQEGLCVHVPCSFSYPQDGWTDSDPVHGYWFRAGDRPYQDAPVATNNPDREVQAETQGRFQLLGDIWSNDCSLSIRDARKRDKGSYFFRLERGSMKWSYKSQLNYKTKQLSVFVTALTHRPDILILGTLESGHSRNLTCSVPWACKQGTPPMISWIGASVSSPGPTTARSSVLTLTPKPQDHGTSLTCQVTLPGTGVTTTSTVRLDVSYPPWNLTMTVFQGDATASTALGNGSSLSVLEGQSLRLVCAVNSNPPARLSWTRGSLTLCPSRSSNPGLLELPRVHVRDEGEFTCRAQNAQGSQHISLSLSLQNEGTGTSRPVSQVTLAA

| Binder | Kd [1] [nM] | koff [1] [s⁻¹] | kon [1] [M⁻¹ s⁻¹] | binding result [2] | binding result [3] | binding result [4] | binding result [5] | binding result [6] | EC50 (read off the curve) [7] [nM] |
| --- | --- | --- | --- | --- | --- | --- | --- | --- | --- |
| B1 | 5.1 | 0.0012 | 230000 | binds | no binding (tested: 5 µg/ml) | – | – | – | – |
| B2 | 2.5 | 0.00053 | 210000 | binds | – | no binding (tested: 5 µg/ml) | no binding (tested: 5 µg/ml) | no binding (tested: 5 µg/ml) | ~0.06 |
